According to patent publication US9206432B2, “Sulfonylurea-responsive repressor proteins” (priority 2008, dated 2015):

Tested on: lacZ under control of the tetA promoter (PtetA) in E. coli KM3
Assay type: cell-based
Settings: for 0.2 ppm 48 hr (colony color intensity, induction by chlorsulfuron): 0.2 ppm chlorsulfuron as inducer, 48 hr at 30° C.; for 0.2 ppm 48 hr (colony color intensity, induction by chlorsulfuron) / Control 84 hr (background activity, no inducer): M9 assay plates, ImageJ colony color intensity; for Control 84 hr (background activity, no inducer): 84 hr at 30° C.

Molecule | 0.2 ppm 48 hr/Control 84 hr | 0.2 ppm 48 hr (colony color intensity, induction by chlorsulfuron) | Control 84 hr (background activity, no inducer)
L6-5H06 (protein, Sulfonylurea responsive repressor L6-5H06) MGSRLDKSKVINSALELLNEVGIEGLTTRKLAQKLGVEQPTLYWHVKNKRALLDALAIEMMDRHQTHICPLEGESWQDFLRNNAKSMRCALLSHRDGAKVCLGTRWTEKQYETAENMLAFLCQQGFSLENALYAVSAVRVFTLGCVLFDQELQVAKEERETPTTASMPPLVRQAWELKDHQGAEPAFLFGLELIICGLEKQLKCESGS | 2.7 | 13.7 | 5.1
L6-6F07 (protein, Sulfonylurea responsive repressor L6-6F07) MGSRLDKSKVINSALELLNEVGIEGLTTRKLAQKLGVEQPTLYWHVKNKRALLDALAIEMMDRHATHLCPLEGESWQDFLRNTAKSMRCALLSHRDGAKVCLGTRWTEQQYESAENMLAFLCQQGFSLENALYAMSAVRVFTLGCVLFDQESQVAKEERETPTTASMPPLLRQAWELKDHQGAEPAFLFGLELIICGLEKQLKCESGS | 2.3 | 11.6 | 5.1
L6-5H12 (protein, Sulfonylurea responsive repressor L6-5H12) MGSRLDKSKVINSALELLNEVGIEGLTTRKLAQKLGVEQPTLYWHVKNKRALLDALAIEMMDRHATHYCPLEGESWQDFLRNNAKSMRCALLSHRDGAKVCLGTRWTEKQYETAENQLAFLCQQGFSLENALYAMSAVRVFTLGCVLFDQELQVAKEERETPTTASMPPLVRQAWELKDHQGAEPAFLFGLELIICGLEKQLKCESGS | 4.2 | 23.7 | 5.7
